Measurements as given in patent US20220340673A1 (HARBOUR BIOMED SUZHOU, published 2022).

T1: human BCMA on cells (HEK293T/huBCMA; NCI-H929) (human, UniProt Q02223 1-184)
T1 construct: whole, on cells; also called human BCMA molecules on NCI-H929 cell line
T1 sequence (looked up): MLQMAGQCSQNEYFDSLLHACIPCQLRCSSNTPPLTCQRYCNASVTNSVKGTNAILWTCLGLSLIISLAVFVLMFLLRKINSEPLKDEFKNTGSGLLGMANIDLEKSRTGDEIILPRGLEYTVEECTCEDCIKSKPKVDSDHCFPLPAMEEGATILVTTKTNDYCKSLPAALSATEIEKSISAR

T2: human BCMA protein with Fc Tag (ACRO, Cat#: BC7-H5254) (human, UniProt Q02223 1-54)
T2 construct: Bought reagent coated on the ELISA plate; not shown: Fc tag of the bought protein
T2 sequence (looked up): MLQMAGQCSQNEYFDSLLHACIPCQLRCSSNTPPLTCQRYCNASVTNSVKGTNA


Columns and labels:
[1] = molecular target: T1, human BCMA on cells (HEK293T/huBCMA; …); assay: FACS on NCI-H929 cell line [B]
Method: To study the binding activity of the BCMA arm of the BCMA×CD3 bispecific antibody to human BCMA, NCI-H929 cell line with highly expressed BCMA was used for binding experiments with human BCMA at cellular level. Briefly, NCI-H929 cell suspensions were collected. The cell density was adjusted to 1×10⁶ cells/mL, and the cells were inoculated in 96 well V-bottom plates at 100 μL cells/well (Corning, Cat#: 3894), followed by the addition of test antibodies at 100 μL/well, which is gradient diluted at 3 folds of the concentration with 2 folds of the final concentration. Cells were incubated at 4° C. for 2 hours in the dark. Afterwards, cells were washed twice with 100 μL/well of pre-cooled PBS, centrifuged at 500 g for 5 min at 4° C., and followed by discarding the supernatant. 100 μL/well of fluorescent secondary antibody (Alexa Fluor 488-conjugated AffiniPure Goat Anti-Human IgG, Fcγ Fragment Specific, Jackson, Cat#:109-545-06, 1:500 dilution) was added and incubated at 4° C. for 1 hour in the dark. Cells were washed twice with 100 μL/well of pre-cooled PBS, centrifuged at 500 g, 4° C. for 5 min, and followed by discarding the supernatant. Finally, the cells were resuspended with 200 μL/well of pre-cooled PBS, and the fluorescence luminescence signal values were read by BD FACS CANTOII.

[2] = molecular target: T2, human BCMA protein with Fc Tag (ACRO, …); assay: ELISA, plate coated with human BCMA-Fc; antibody blocks the binding of biotinylated human BAFF [B]
Method: This example was conducted to evaluate the blockage ability of anti-human BCMA HCAb monoclonal antibody to the binding of human BCMA (ACRO, BCA-H522y-100 μg) with ligand BAFF protein (ACRO, BAF-H5248-50 μg). The BAFF protein was biotinylated by using a biotinylation kit (ThermoFisher, A39257, EZ-Link Sulfo-NHS-LC-Biotin) according to the instructions. The plates (Corning, Cat#: 9018) were coated with 1 μg/mL of human BCMA protein with Fc Tag (ACRO, Cat#: BC7-H5254) overnight. The plates were washed for 3 times with PBST, added with 2% BSA and then sealed at room temperature for 1 hour. The plates were washed with PBST for 3 times, and added with test antibody gradient diluted at 3 folds concentration 100 μL/well, with an initial concentration of 50 nM. After being incubated for 1h, the supernatant was discarded and 0.5 μg/mL of biotinylated human BAFF protein (prepared according to conventional methods in the art) was added to the plates at 100 μL/well. The plates were incubated at room temperature for 1 h and discarded the supernatant. Streptavidin-coupled HRP (Bio-RAD, Cat#: 1610380) with 1: 4000 diluted was added at 100 μL/well. The plates were incubated for 1 h at room temperature and washed with PBST for 3 times. […] OD450 values were read by using Enspire (Perkin Elmer).

[3] = molecular target: T3, cynomolgus monkey BCMA on cells (HEK293T/cynoBCMA) (cynomolgus monkey, UniProt A0A2K5UD97 1-183); assay: FACS on HEK293T cell strain overexpressing cynomolgus monkey BCMA [D]
T3 construct: whole, on cells
Method: (§1) This example was conducted to study the binding activity of anti human BCMA HCAb monoclonal antibodies to human and cynomolgus monkey BCMA in vitro. HEK293T cell strain (HEK293T/huBCMA, Beijing Kang yuan) overexpressing human BCMA, HEK293T cell strain (HEK293T/cynoBCMA, Beijing Kang yuan) overexpressing cynomolgus monkey BCMA and NCI- H929 cell line (ATCC® CRL-9068TM) highly expressing human BCMA were used for antibody binding assay at cellular level. Briefly, HEK293T/huBCMA cells and HEK293T/cynoBCMA cells were digested and resuspended with DMEM complete medium, and NCI-H929 cell suspensions were collected by resuspension with DMEM complete medium. The density of the three cells was adjusted to 1×10⁶ cells/mL, respectively. The cells were inoculated at 100 μL cells/well in 96 well V-bottom plates (Corning, Cat#: 3894), followed by the addition of test antibodies at 100 μL/well, which is gradient diluted at 3 folds of the concentration with 2 folds of the final concentration. Cells were incubated at 4° C. for 1 hours in the dark. Afterwards, the cells were washed twice with 100 μL/well of pre-cooled PBS, centrifuged at 500 g for 5 min at 4° C. and followed by discarding the supernatant. […] Finally, the cells were resuspended with 200 μL/well of pre-cooled PBS and the fluorescent luminescence signal values were read by using BD FACS CANTOII.

[4] = molecular target: T1, human BCMA on cells (HEK293T/huBCMA; …); assay: FACS on HEK293T cell strain overexpressing human BCMA [D]
Method: as §1

[5] = molecular target: T1, human BCMA on cells (HEK293T/huBCMA; …); assay: FACS on NCI-H929 cell line [D]
Method: as §1

T3 sequence (A0A2K5UD97 entry or part of it): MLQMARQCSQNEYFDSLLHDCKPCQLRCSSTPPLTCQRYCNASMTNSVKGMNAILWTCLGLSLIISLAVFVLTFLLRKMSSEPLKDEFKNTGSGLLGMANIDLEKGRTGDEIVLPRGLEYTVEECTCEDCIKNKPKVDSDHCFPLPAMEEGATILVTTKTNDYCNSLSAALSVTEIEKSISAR

Binder | EC50 [1] | IC50 [2] | EC50 [3] | EC50 [4] | EC50 [5]
BCMA x CD3 bispecific antibody PR002299 (bispecific antibody, human IgG1, lambda, L234A L235A) heavy 1: EVQLLESGGGLVQPGGSLRLSCAASGFTFSTYAMNWVRQAPGKGLEWVSRIRSKYNNYATYYADSVKDRFTISRDDSKSTLYLQMNSLRAEDTAVYYCVRHGNFGNSYVSWFAYWGQGTLVTVSSASTKGPSVFPLAPSSKSTSGGTAALGCLVKDYFPEPVTVSWNSGALTSGVHTFPAVLQSSGLYSLSSVVTVPSSSLGTQTYICNVNHKPSNTKVDKKVEPKSCDKTHTCPPCPAPEAAGGPSVFLFPPKPKDTLMISRTPEVTCVVVDVSHEDPEVKFNWYVDGVEVHNAKTKPREEQYNSTYRVVSVLTVLHQDWLNGKEYKCKVSNKALGAPIEKTISKAKGQPREPQVYTLPPCREEMTKNQVSLWCLVKGFYPSDIAVEWESNGQPENNYKTTPPVLDSDGSFFLYSKLTVDKSRWQQGNVFSCSVMHEALHNHYTQKSLSLSPGK light: QAVVTQEPSLTVSPGGTVTLTCRSSTGAVTTSNYANWVQQKPGQAPRGLIGGTNKRAPWTPARFSGSLLGDKAALTLLGAQPEDEAEYFCALWYSNLWVFGGGTKLTVLGQPKAAPSVTLFPPSSEELQANKATLVCLISDFYPGAVTVAWKADSSPVKAGVETTTPSKQSNNKYAASSYLSLTPEQWKSHRSYSCQVTHEGSTVEKTVAPTECS heavy 2: EVQLLESGGGLVQPGGSLRLSCAASGFTFSSYAMIWVRQAPGKGLEWVSGISESGGSTYYADSVKGRFTISRDNSKNTLYLQMNSLRAEDTAVYFCVKDLDDILTGYYKDYWGQGTLVTVSSRTGGGGSKLEVQLLESGGGLVQPGGSLRLSCAASGFTFSSYAMIWVRQAPGKGLEWVSGISESGGSTYYADSVKGRFTISRDNSKNTLYLQMNSLRAEDTAVYFCVKDLDDILTGYYKDYWGQGTLVTVSSASEPKSSDKTHTCPPCPAPEAAGGPSVFLFPPKPKDTLMISRTPEVTCVVVDVSHEDPEVKFNWYVDGVEVHNAKTKPREEQYNSTYRVVSVLTVLHQDWLNGKEYKCKVSNKALGAPIEKTISKAKGQPREPQVCTLPPSREEMTKNQVSLSCAVKGFYPSDIAVEWESNGQPENNYKTTPPVLDSDGSFFLVSKLTVDKSRWQQGNVFSCSVMHEALHNHYTQKSLSLSPGK | 57.2 nM | – | – | – | –
anti-human BCMA HCAb monoclonal antibody PR001046 (antibody, human IgG1, V domains shown, also called PRO01046; HBM1005P63B7) VH: EVQLVETGGGLIQPGGSLRLSCAASGFTVSDNYMTWVRQAPGKGLEWVSVIFSGGNTYYADSVKGRFTISRDNAKNTLYLQMNSLRAEDTALYYCARRNYDDTRGTDVFDIWGQGTMVTVSS | – | 2.94 nM | 0.564 nM | 0.213 nM | 1.53 nM
positive control 1, PR000274 (anti-BCMA antibody CA8-J6M0 hIgG1) (antibody, V domains shown, Full-length hIgG1 control antibody) VH: QVQLVQSGAEVKKPGSSVKVSCKASGGTFSNYWMHWVRQAPGQGLEWMGATYRGHSDTYYNQKFKGRVTITADKSTSTAYMELSSLRSEDTAVYYCARGAIYDGYDVLDNWGQGTLVTVSS VL: DIQMTQSPSSLSASVGDRVTITCSASQDISNYLNWYQQKPGKAPKLLIYYTSNLHSGVPSRFSGSGSGTDFTLTISSLQPEDFATYYCQQYRKLPWTFGQGTKLEIKR | – | 4.36 nM | 4.56 nM | 4.07 nM | 10.8 nM
